Test results from the DeepSol protein solubility set.

Assay: soluble on expression in E. coli; label from the status in PepcDB or PDB records

Sequence	soluble on expression in E. coli
MNSRSTAEITDYLNEKITKKDALELFSLPIHAVGRIADEIRKVKCGDLVTFVNDTNINYTNICLSKCRFCAFYAREKGYVLSHEEILRKVGYAVKMGATQIMLQGGMNPDLGLEWFEELFRKIKARFSSVHIHSLSPPEIVFLAKLERSSIREVLDRLKAAGLDSLPGGGAEILVDSVRRKISPNKCSSDEWLRVMETAHSLNMPTTATMMFGHVESDGDIVEHLIKIRELQEKTGGFTAFIPWTFQPGNTELYAEIKRPVSPLRYLQVLAISRIVLNNFRNIQASWLTQGFEIATLSLFFGANDFGGTMLEENVVRATGKDFRPAKIEEIVKAVKAVGRPVALRDTYYNILEWF	not soluble
MSRAASLRAELTSLANAFEEERISSAERLDADLVRQAVEQAKPENLEQWKQVVHDATAKLQQFWEDSEQALIRETYALATSYLRESDDEVHRLQMTKKALEEQLETERRRSTRIEEQLAALQSRLLDSAAPAATTPADDARTQQEVLRSELQGFMQELVRNQRESLRVLQEELQRVREEASVREENLLRQIAHLKTELAVARTDNEVSSRQLRQLETSAGREEVQDELGPGTIWPPHLTPRRGHRRFQRHNRLEDAPAPPEF	not soluble
MKSRIPVVLLACGSFNPITNMHLRMFEVARDHLHQTGMYQVIQGIISPVNDTYGKKDLAASHHRVAMARLALQTSDWIRVDPWESEQAQWMETVKVLRHHHSKLLRSPPQMEGPDHGKALFSTPAAVPELKLLCGADVLKTFQTPNLWKDAHIQEIVEKFGLVCVGRVSHDPKGYIAESPILRMHQHNIHLAKEPVQNEISATYIRRALGQGQSVKYLIPDAVITYIKDHGLYTKGSTWKGKSTQSTEGKTS	soluble
MSLRLFGTHIQAAIRPVIWLLLWQASSGFANQVRVEVEGDYDQLQENAEILLGEVQDRTADGLRRYASSAAAQVEEAVRALGYYNPTIRWQVNEQDEAPAELVLTIVPGEPVRVRSRQVDIQGPGADDPDLVQSLPERPREGDILNHGEYDGLRQAIQNRAGRLGYFDGEYETRKLKVDPDANAADILLTYRTGERYQLGEVTFLEGHGFDEQLLRQFVTTEPGEPFHADKVARLNRDLSNSGYFSGVDIDASPSQAEDRVIPVTIGLTPRPPRSVSAGVGFSTDVGPRFRGNWREHYINSMGHKRGADTELSELRQSVSGWYELPLDPPMTDSIRLGTGYQREHVEDVESERLTFGQQWNHQLDDGWMQVLSMRWEGERFRIGDGERGTSSLLLPGVSYSKLQADSPLDPSRGFRLQLDVTGAHRAVLSDADILHVNLLAKGLYTLADNHRFLARFNFGGVATNNFSDVPPSLRFFAGGDQSVRGYGYETLSPEDSDGVAVGGRYLIVGSAEYQYEFARNWRVAAFVDEGNAVNDVFDPLATGVGVGIRWVSPVGPLRLDVARGLNEELGGGWRIHFSMGPEEGHHHHHH	not soluble
MNDSTCPRPCLMKLDLQSSTNKLAFLKDNWPSFGQIESIDRLSETELRCTLCLLDVVLAALAKDECFCPNREIIRLVLTRTYVQNRCELCETEEIRSKLMKGFCTWEKKNGLSRKNEIRRRGISVFYGAILRMLSKVNGKQE	not soluble
VQLQQSGTELMKPGRSLKISCKTTGYIFSNYWIEWVKQRPGHGLEWIGKILPGGGSNTYNDKFKGKATFTADTSSNIAYMQLSSLTSEDSAVYYCARGEDYYAYWYVLDYWGQGTTVTVSSGGGGSDIELTQSPLSLPVSLGDQASISCRSSQSLVHSNGNTSLHWYLKKPGQSPKLLIYKVSTRFSGVPDRFSGSGSGTDFTLKISRVEAEDLGVYFCSQSTHVPFTFGSGTKLELK	soluble
MVKSIVILIETVTMKIPAVYSDGSFKTFNDSETTAQKLVDSGVVNTFAFGPTLVENGKVAVSENEEVGQDMADNPRTAIVVNEESDRSVHYIVIVSDGRTSESSGLTLYEMAELMKSYGVMTGYNLDVGDSSTMYSNGQVINKPTRKRKQNLRKGGERYRLHRLLKNLLASTFSPPILVLEHHHHHH	soluble
MRTGKQYLESLNDGRVVWVGNEKIDNVATHPLTRDYAERVAQFYDLHHRPDLQDVLTFVDADGVRRSRQWQDPKDAAGLRVKRKYHETILREIAAGSYGRLPDAHNYTFTTYADDPEVWEKQSIGAEGRNLTQNIHNFLKLLREKDLNCPLNFVDPQTDRSSDAAQARSPNLRIVEKTDDGIIVNGVKAVGTGIAFGDYMHIGCLYRPGIPGEQVIFAAIPTNTPGVTVFCRESTVKNDPAEHPLASQGDELDSTTVFDNVFIPWEQVFHIGNPEHAKLYPQRIFDWVHYHILIRQVLRAELIVGLAILITEHIGTSKLPTVSARVAKLVAFHLAMQAHLIASEETGFHTKGGRYKPNPLIYDFGRAHFLQNQMSVMYELLDLAGRSSLMIPSEGQWDDSQSGQWFVKLNNGPKGNPRERVQIGRVIRDLYLTDWGGRQFMFENFNGTPLFAVFAATMTRDDMSAAGTYGKFASQVCGIEFGGAEPTAYAATADYAKALDKGLAPEPAAAESATS	soluble
STDYGEEQRNELEALESIYPDSFTVLSESPPSFTITVTSEAGENDETVQTTLKFTYSEKYPDETPLYEIFSQENLEDNDVSDILKLLALQAEENLGMVMIFTLVTAVQEKLNEIVDQIKTRREEEKKQKEKEAEEAEKKLFHGTPVTIENFLSWKAKFDAELLEIKKKRMKEEEQAGKNKLSGKQLFETDHNLDTSDIQFLEDAGNNVEVDESLFQEMDDLELEDGEDDPDYNPVAPGSDSSD	soluble
MRGVVKELNDDGFGVLGNVLVPFSAPGDEVEILKIEKVKKAKIASKWKLIKSSPLRVGARCKVFGRCGGCSLQHLSYDYQLEFKGERIRRLLGVDVEVIPSPRIFGHRNRIDLAVTVEGIGFRERGKWWKIVDIQECPVFGKTSRKAIERLREFIEEERISVWNVKKDEGFLRYMVLREGKFTGEVMVNLVTKEGKLPDPSKYFDFATSIYWSVNRTKSDVSYGEVESVWGREFITEKLDDVIYLIHPNSFFQTNSYQAVNLVKKVSELVEGERVLDMYSGVGTFGIYLAKRGFKVVGFDSNEFAIEMARKNAKINKVDAVFDVATDREVEVNGFDTVIVDPPRVGLHPKLIKKLNREKPEVIVYVSCNPKTFARDIEKLEYKIDEIVALDMFPHTPHLELVAKLIV	soluble
LREQPQQNECQLERLDALEPDNRIESEGGLIETWNPNNKQFRCAGVALSRATLQRNALRRPYYSNAPQEIFIQQGNGYFGMVFPGCPETFEEPQESEQGEGRRYRDRHQKVNRFREGDIIAVPTGIVFWMYNDQDTPVIAVSLTDIRSSNNQLDQMPRRFYLAGNHEQEFLQYQHQQGGKQEQENEGNNIFSGFKRDFLEDAFNVNRHIVDRLQGRNEDEEKGAIVKVKGGLSIISPPEKQARHQRGSRQEEDEDEEKQPRHQRGSRQEEEEDEDEERQPRHQRRRGEEEEEDKKERGGSQKGKSRRQGDNGLEETVCTAKLRLNIGPSSSPDIYNPEAGRIKTVTSLDLPVLRWLKLSAEHGSLHKNAMFVPHYNLNANSIIYALKGRARLQVVNCNGNTVFDGELEAGRALTVPQNYAVAAKSLSDRFSYVAFKTNDRAGIARLAGTSSVINNLPLDVVAATFNLQRNEARQLKSNNPFKFLVPARESENRASA	soluble
MGSDKIHHHHHHMEKLFTYKEFVDMMQKYGIRHTKRKLRRGENLMENASKFSNVVLLINGYISSYTYESPEKLLSIFEPGIFLRYSILEDQPEFVTNIALSDNCEVYEYKKEDIEYALTLFPENFGFQYFFLKRIGRHLYYRALLNGKEHKEKLYYAMKYLGELIGKTDENGNVSLPPEVTLKVLIEYSTLSKAAFYRQRIRLLEQEILKPHENTFIVQKKVASHYENQLTSI	not soluble
MARLSGILADSDIQALIDNNFLKALWPFDAAQIQPASLDLRLGEKAYRIRASFMPGADVRVLDKLERLKLHEFDLRDGAVLETGCVYIVPLLENLALPEILSAIANPKSSTGRLDIFTRVITDNAQEFDKICVGYHGPLYLEISPRTFPILVRTGSRLFQLRFRKGHSYLNEIELHALHRDETLISDDLPNISAGGIGLSINLKGDENGLVGYRGKRHTSVIDIDKHAVANILDFWEPLFDRGQRELILDPDEFYILVSRESVHVPPLYAAEMTPFDPLVGEFRVHYAGFFDPGFGHMEAGGKGARAVLEVRSHEVPFILEHGQIIGRLVYEQMLKRPLALYGEDSGSHYQAQGLKLSKHFR	not soluble
